Experiments:
[1] = Pharmacokinetics after s.c. injection in mice; assay type: in vivo; conditions: mouse; for t1/2 / Cmax: mean [95% CI]; for t1/2 / tmax / Cmax: n = 15; for tmax: median; for Cmax: sparse sampling 0-240 min, population PK and non-compartment analysis
Experimental: Pharmacokinetic (PK) parameters were estimated from the two experiments with sparse sampling (three blood samples per mouse) for 0–240 min. Initially, population PK models[25] for each compound was developed in Nonmem (Icon, Dublin, Ireland) and approximately 60 individual post-hoc concentration-time data points per mouse was subjected to non-compartment analysis.

H4IIE cells = experiment: Mitogenic potency from thymidine-incorporation in H4IIE cells; assay type: cell-based, rat; conditions: weighted mean [95% CI], at least three independent experiments
Experimental: (§1) Fitting of dose-response curves describing thymidine-incorporation in vitro and activation of IR and IGF-1R, including calculation of EC50 values, were conducted with GraphPad Prism (GraphPad Software Inc., La Jolla, CA, USA).
(§2) H4IIE cells (ATCC, Manassas, VA, USA) were cultured in minimum essential medium (MEM) (Gibco) supplemented with 10% (v/v) FBS, 100 µg/ml penicillin and 100 U/ml streptomycin, 1% (v/v) MEM non-essential amino acids and 1% (v/v) pyruvate (all from Gibco).

[2] = system: IR and IGF-1R in L6hIR xenografts; experiment: Acute activation of IR and IGF-1R in L6hIR xenografts in vivo; set-up: species or system mouse; conditions: experiment A; 300 nmol/kg s.c., single treatment, euthanized 20 min later; n = 7-8
Experimental: Male BALB/c nude mice (CAnN.Cg-Foxn1 nu/Crl) were purchased from Charles River (Charles River Laboratories Germany, Sulzfeld, Germany) at age of seven weeks and housed five mice per cage in individually ventilated Techniplast GR 900 Seal Safe Plus cages, with unrestricted access to a complete pelleted rodent diet (Altromin 1324, Brogården, Hørsholm, Denmark) and tap water (non-chlorinated, non-acidified). In the animal room the temperature was 18–24 °C, with relative humidity at 30–70%, air change 8–15 times/h and a light-dark cycle of 12/12 h. All mice were acclimatized for 10 days before experiments were started. On day 0, all mice were injected s.c. in the right flank with 2.5 million L6hIR (six experiments) or L6 cells (one experiment), suspended in 0.1 ml PBS. On the same day treatment with vehicle or test compounds was started and continued either once or twice daily until the end of the experiment (Supplementary Table S5). […]
L6hIR cell xenograft samples were lysed in cell extraction buffer as described previously[10]. Protein concentration of cell and xenograft lysates was assessed with Pierce BCA protein assay kit (Thermo Fisher Scientific, Hvidovre, Denmark), according to the manufacturer’s instructions.

[3] = Lowering of blood glucose in mice with L6hIR xenografts; assay type: in vivo, mouse; conditions: 300 or 600 nmol/kg s.c., experiment D
Experimental: Blood glucose and plasma concentrations of test compounds and endogenous mouse insulin were assessed as described previously[10].

L6hIR cells = experiment: Mitogenic potency from thymidine-incorporation in L6hIR cells; assay type: cell-based, rat; conditions: weighted mean [95% CI], at least three independent experiments
Experimental: as §1, §2

P-IR(Tyr1158) = biological target: T1, P-IR(Tyr1158) (Homo sapiens, UniProt P06213); experiment: Activation of IR in L6hIR cells in vitro, sandwich ELISA; assay type: cell-based; conditions: ligands 0-1000 nM for 30 min, 0.1% human serum albumin, three replicates
T1 construct: expressed in transfected cells; host or cells: rat L6 myoblast cells (L6hIR, generated at Novo Nordisk)
Experimental: L6hIR cells were seeded in 12-well plates and grown until 90–100% confluence in DMEM (Gibco, Invitrogen, Carlsbad, CA, USA). Cells were stimulated with increasing concentrations of ligands (0–1000 nM) for 30 min in DMEM (Gibco) medium containing 0.1% human serum albumin. Subsequently, cells were washed three times in ice-cold phosphate buffered saline (PBS) and snap-frozen by pouring liquid nitrogen into the wells. Cells were lysed in 100 µL lysis buffer (cell extraction buffer from BioSource, Invitrogen, Carlsbad, CA, USA; supplemented with 1 mmol/l 4-(2-aminoethyl)benzenesulfonyl fluoride hydrochloride, and protease inhibitor cocktail from Sigma-Aldrich).
as §1

[4] = s.c., range over doses of 300 and 600 nmol/kg of HI and IX10

T1 sequence (P06213 28-1370 isoform P06213-2 limits assumed): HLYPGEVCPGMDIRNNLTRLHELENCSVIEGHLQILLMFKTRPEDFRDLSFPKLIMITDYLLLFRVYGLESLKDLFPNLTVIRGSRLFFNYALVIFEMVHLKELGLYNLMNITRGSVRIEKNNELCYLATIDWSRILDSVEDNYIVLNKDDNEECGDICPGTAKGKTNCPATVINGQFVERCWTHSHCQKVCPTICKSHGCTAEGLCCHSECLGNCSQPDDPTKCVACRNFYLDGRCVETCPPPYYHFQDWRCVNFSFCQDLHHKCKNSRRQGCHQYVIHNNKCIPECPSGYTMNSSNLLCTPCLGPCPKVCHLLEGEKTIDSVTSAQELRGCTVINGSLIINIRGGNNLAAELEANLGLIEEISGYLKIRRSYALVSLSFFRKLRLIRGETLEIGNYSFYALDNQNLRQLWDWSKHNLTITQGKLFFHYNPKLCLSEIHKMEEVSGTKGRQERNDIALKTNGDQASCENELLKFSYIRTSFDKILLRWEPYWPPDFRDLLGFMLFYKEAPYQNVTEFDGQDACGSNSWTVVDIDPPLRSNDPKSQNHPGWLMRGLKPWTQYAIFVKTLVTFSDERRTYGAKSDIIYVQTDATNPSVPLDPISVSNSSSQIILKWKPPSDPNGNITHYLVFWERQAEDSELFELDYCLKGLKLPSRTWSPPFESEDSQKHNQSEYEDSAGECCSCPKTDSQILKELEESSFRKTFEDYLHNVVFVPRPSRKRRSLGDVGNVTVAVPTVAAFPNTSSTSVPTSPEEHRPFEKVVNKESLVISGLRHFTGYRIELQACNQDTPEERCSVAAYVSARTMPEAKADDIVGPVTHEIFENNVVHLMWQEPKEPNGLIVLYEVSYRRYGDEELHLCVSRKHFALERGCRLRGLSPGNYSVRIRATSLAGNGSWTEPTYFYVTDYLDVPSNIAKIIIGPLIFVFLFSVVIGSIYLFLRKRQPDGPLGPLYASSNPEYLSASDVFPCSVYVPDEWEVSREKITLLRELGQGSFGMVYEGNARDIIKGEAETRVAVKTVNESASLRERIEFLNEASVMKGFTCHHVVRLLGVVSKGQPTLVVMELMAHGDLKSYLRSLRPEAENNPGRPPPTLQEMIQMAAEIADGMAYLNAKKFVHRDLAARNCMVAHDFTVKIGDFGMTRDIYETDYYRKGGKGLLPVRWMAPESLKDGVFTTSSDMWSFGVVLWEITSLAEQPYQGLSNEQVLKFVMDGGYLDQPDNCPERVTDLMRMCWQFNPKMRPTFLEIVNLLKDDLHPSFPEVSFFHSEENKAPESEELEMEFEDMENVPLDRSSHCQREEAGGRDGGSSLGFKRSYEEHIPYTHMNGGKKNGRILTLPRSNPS
T1 sequence (P06213 763-1382 partner limits assumed): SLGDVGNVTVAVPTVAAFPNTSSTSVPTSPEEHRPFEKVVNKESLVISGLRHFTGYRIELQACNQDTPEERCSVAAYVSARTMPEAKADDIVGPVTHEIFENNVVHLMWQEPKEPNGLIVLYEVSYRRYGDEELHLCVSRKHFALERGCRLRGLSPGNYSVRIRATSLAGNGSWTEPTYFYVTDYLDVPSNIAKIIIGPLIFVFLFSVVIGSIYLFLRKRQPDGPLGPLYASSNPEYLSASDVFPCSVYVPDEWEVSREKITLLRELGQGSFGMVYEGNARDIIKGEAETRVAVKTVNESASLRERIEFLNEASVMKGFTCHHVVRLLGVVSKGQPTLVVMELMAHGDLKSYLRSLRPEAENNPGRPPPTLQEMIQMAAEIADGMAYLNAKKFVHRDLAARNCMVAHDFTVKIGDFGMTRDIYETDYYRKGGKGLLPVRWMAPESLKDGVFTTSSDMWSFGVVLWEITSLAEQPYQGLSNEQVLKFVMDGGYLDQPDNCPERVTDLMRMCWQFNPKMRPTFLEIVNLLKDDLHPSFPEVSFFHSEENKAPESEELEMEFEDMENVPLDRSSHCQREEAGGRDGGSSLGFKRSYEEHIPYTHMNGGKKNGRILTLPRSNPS

Row | Substance | t1/2 ([1]; 300 nmol/kg s.c., experiment H) | tmax ([1]; 300 nmol/kg s.c., experiment H) | Cmax ([1]; 300 nmol/kg s.c., experiment H) | t1/2 ([1]; 600 nmol/kg s.c., experiment I) | tmax ([1]; 600 nmol/kg s.c., experiment I) | Cmax ([1]; 600 nmol/kg s.c., experiment I) | elimination half-life [1, 4] | maximum plasma concentration [1, 4] | time of maximum plasma concentration after s.c. injection [1, 4] | mitogenic potency H4IIE cells (% of HI) (H4IIE cells) | Activation of IR and IGF-1R in L6hIR xenografts in vivo [2] | Duration of decreased blood glucose [3] | mitogenic potency L6hIR cells (% of HI) (L6hIR cells) | EC50 (P-IR(Tyr1158))
1 | human insulin [HI] | 96 [85 ; 107] min | 11 min | 725.7 [654.0 ; 797.4] nmol/l | 52 [48 ; 56] min | 17 min | 812.5 [761.7 ; 863.4] nmol/l | 1 to 1.5 h | 500 to 850 nmol/L | 11 to 17 min | 100 % of HI | acute activation of IR and IGF-1R | 4 to 6 h | 100 % of HI | –
2 | IGF-1: human IGF-1, reference ligand in receptor activation assays | – | – | – | – | – | – | – | – | – | – | – | – | – | 25.8 nM

Source: paper PMC7190841 (Scientific Reports, 2020)
